Results from PMC4936993, “Preparation of a functional fluorescent human Fas ligand extracellular domain derivative using a three-dimensional structure guided site-specific fluorochrome conjugation” (SpringerPlus, 2016).

Molecular target: T1, FL-5Mal conjugated NFG1CG4-hFasLECD (human, UniProt P48023 139-281, N184Q | N250Q, Fluorescein-5-Maleimide conjugated to the unpaired cysteine in the N-terminal tag sequence (estimated 2.5 per trimer, approximately 83 % of the cysteines))
T1 construct: linker of the N-terminal tag, between FLAG (DYKDDDDK) and residue 139 of hFasLECD; printed in three-letter code; its Cys is the conjugation site; human Fas ligand (CD178) extracellular domain with residues 103-138 deleted: hFasLECD (139-281, N184Q, N250Q); It calls the protein a trimer in words only; also called Fluorescein-5-Maleimide conjugated human Fas ligand extracellular domain derivative; …
T1 sequence: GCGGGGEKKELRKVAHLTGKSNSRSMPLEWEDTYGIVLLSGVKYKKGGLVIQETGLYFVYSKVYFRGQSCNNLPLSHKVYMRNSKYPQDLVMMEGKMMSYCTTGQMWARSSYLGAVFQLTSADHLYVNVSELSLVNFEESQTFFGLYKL
Assay: SEC; mixtures of hFasRECD-Fc and the conjugate in several amount ratios on Superdex 200 10/300 GL; 50 mM Tris-hydrochloride, 150 mM sodium chloride, pH 7.5; 0.5 ml/min; absorbance at 280 and 495 nm
Conditions: both partners purified

B1: human Fas receptor extracellular domain—human IgG1 Fc domain fusion protein (Fc fusion, UniProt P25445 26-173, looked up)
chain: QVTDINSKGLELRKTVTTVETQNLEGLHHDGQFCHKPCPPGERKARDCTVNGDEPDCVPCQEGKEYTDKAHFSSKCRRCRLCDEGHGLEVEINCTRTQNTKCRCKPNFFCNSTVCEHCDPCTKCEHGIIKECTLTSNTKCKEEGSRSN
notes: human Fas receptor (CD95) extracellular domain; also called hFasRECD-Fc; source: baculovirus—Bombyx mori larvae expression system, purified (Hi-Trap Protein G HP, Mono Q 10/10; main peak also by Superdex 200)
binding result: binds
